Results: US9657091 (AC IMMUNE S A, dated 2017)

T1: Tau-derived peptide Tau401-418, not phosphorylated (T4.6) (human)
T1 construct: it is called the non-phosphorylated version of the same peptide as T4.5 (Tau401-418); also called corresponding non-phosphorylated Tau peptide
T1 peptide: GDTSPRHLSNVSSTGSID


Columns and labels:
[1] = target: T1, Tau-derived peptide Tau401-418, not …; assay: direct ELISA on plate-coated peptide (10 ug/mL), AP-conjugated anti-human IgG, O.D. at 405 nm
Procedure: Binding of hACl-36-2B6-Ab1 and hACl-36-3A8-Ab1 to T4 Peptides by ELISA 1.1. Method 1.1.1 Phospho-Tau Binding Assay To test the binding of the antibody to pTau, an ELISA assay was used. Nunc MaxiSorp 96-well plates (Nunc, Denmark) were coated with 10 µg/mL of the Tau-derived peptide Tau401-418, phosphorylated (T4.5) or not (T4.6) on serine 409. Coating was done overnight in phosphate-buffered saline (PBS; Sigma-Aldrich, Switzerland) at 4° C. Plates were washed thoroughly with 0.05% Tween20/PBS and then blocked with 1% bovine serum albumin (BSA; Sigma-Aldrich) in 0.05% Tween20/PBS for 1 hr at 37° C. The supernatant containing the antibody being tested was then added in 8 two-fold dilutions, starting at 0.5 µg/mL, and incubated for 2 hr at 37° C. Plates were then washed as described previously, and an alkaline phosphatase (AP) conjugated goat anti-human IgG (Jackson ImmunoResearch Laboratories, England) was added at 1/2,000 dilution in 0.05% Tween20/PBS for 2 hr at 37° C. After washing, plates were incubated with p-nitrophenyl phosphate disodium hexahydrate (pNPP; Sigma-Aldrich, Switzerland) phosphatase substrate solution, and read at 405 nm following 1 hr incubation using a microplate reader (Tecan, Switzerland). Results are expressed as optical density (O.D.). […]

[2] = target: Tau-derived peptide Tau401-418, phosphorylated (T4.5) (human); assay: SPR (Biacore T100), antibody captured via Protein G on CM7 chip, peptide T4.5 as analyte 50-800 nM, single-cycle kinetics, 1:1 Langmuir fit
Sequence of Tau-derived peptide Tau401-418, phosphorylated (T4.5) (human) (peptide, as listed by the source): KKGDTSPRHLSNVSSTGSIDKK

binding result [1]	Kd [2]	koff [2]	kon [2]	Binder
no binding (tested: 0.5 ug/mL)	67 nM	0.0036 s⁻¹	54000 M⁻¹ s⁻¹	humanized antibody hACl-36-2B6-Ab1 (IgG4) (antibody, V domains shown, Humanized IgG4, kappa; also called 2B6A10C11) VH: QVQLVQSGAEVKKPGSSVKVSCKASGYTFTDYYMNWVRQAPGQGLEWIGDINPNRGGTTYNQKFKGRVTITVDKSTSTAYMELSSLRSEDTAVYYCASYYAVGYWGQGTTVTVSS VL: DIVMTQTPLSLPVTPGEPASISCRSSQSLVHSHGKTYLHWYLQKPGQSPQLLIYKVSNRFSGVPDRFSGSGSGTDFTLKISRVEAEDVGVYFCSQTAHFPYTFGGGTKVEIKR
no binding (tested: 0.5 ug/mL)	–	–	–	humanized antibody hACl-36-3A8-Ab1 (IgG4) (antibody, V domains shown, Humanized IgG4, kappa; Tested as a supernatant containing the antibody; also called 3A8A12G7) VH: QVQLVQSGAEVKKPGSSVKVSCKASGYTFTDYYMNWVRQAPGQGLEWIGDINPNRGGTTYNQKFKGRVTITVDKSTSTAYMELSSLRSEDTAVYYCASYYAVGYWGQGTTVTVSS VL: DIVMTQTPLSLPVTPGEPASISCRSSQRLVHSHGKTYLHWYLQKPGQSPQLLIYKVSNRFSGVPDRFSGSGSGTDFTLKISRVEAEDVGVYFCSQTAHFPYTFGGGTKVEIKR
